Data as given in article doi:10.1101/2020.10.21.349357 (bioRxiv, 2020).

Assays:
linear hepta-ubiquitin = linear hepta-ubiquitin (UniProt P0CG48 1-76; P0CG48 1-76; P0CG48 1-76; P0CG48 1-76; P0CG48 1-76; P0CG48 1-76; …); assay: co-IP
linear tetra-ubiquitin = linear tetra-ubiquitin (UniProt P0CG48 1-76; P0CG48 1-76; P0CG48 1-76; P0CG48 1-76); assay: co-IP
Chain of linear tetra-ubiquitin (P0CG48 1-304, one chain of several): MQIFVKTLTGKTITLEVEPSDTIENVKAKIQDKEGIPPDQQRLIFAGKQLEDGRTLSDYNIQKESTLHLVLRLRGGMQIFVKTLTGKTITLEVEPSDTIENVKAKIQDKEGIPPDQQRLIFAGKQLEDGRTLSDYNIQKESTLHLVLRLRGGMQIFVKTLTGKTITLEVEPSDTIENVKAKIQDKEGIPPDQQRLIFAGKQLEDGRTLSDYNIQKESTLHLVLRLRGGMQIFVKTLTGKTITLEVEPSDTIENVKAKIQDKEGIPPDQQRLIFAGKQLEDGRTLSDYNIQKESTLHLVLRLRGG

Chain of linear hepta-ubiquitin (P0CG48 1-532, one chain of several): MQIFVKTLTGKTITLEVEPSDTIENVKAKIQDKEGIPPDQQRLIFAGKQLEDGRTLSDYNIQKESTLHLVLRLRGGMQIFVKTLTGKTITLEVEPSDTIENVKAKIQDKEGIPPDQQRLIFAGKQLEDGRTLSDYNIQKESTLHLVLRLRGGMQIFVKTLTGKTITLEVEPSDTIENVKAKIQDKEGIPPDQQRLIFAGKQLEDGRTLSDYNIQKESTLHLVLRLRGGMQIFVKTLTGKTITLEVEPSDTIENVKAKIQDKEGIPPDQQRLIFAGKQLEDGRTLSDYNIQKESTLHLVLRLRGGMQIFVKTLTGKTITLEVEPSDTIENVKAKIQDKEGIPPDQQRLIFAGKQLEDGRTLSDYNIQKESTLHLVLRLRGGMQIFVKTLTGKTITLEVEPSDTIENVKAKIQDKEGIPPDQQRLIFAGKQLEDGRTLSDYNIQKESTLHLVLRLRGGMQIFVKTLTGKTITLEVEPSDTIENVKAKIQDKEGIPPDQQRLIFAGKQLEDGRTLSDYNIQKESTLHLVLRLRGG

B1: HA-tagged N4BP1 (full length) (natural protein, human, UniProt O75113 1-896, looked up)
chain: MAARAVLDEFTAPAEKAELLEQSRGRIEGLFGVSLAVLGALGAEEPLPARIWLQLCGAQEAVHSAKEYIKGICEPELEERECYPKDMHCIFVGAESLFLKSLIQDTCADLCILDIGLLGIRGSAEAVVMARSHIQQFVKLFENKENLPSSQKESEVKREFKQFVEAHADNYTMDLLILPTSLKKELLTLTQGEENLFETGDDEVIEMRDSQQTEFTQNAATGLNISRDETVLQEEARNKAGTPVSELTKQMDTVLSSSPDVLFDPINGLTPDEEALSNERICQKRRFSDSEERHTKKQFSLENVQEGEILHDAKTLAGNVIADLSDSSADSENLSPDIKETTEEMEYNILVNFFKTMGYSQEIVEKVIKVYGPSTEPLLLLEEIEKENKRFQEDREFSAGTVYPETNKTKNKGVYSSTNELTTDSTPKKTQAHTQQNMVEKFSQLPFKVEAKPCTSNCRINTFRTVPIEQKHEVWGSNQNYICNTDPETDGLSPSVASPSPKEVNFVSRGASSHQPRVPLFPENGLHQQPEPLLPNNMKSACEKRLGCCSSPHSKPNCSTLSPPMPLPQLLPSVTDARSAGPSDHIDSSVTGVQRFRDTLKIPYKLELKNEPGRTDLKHIVIDGSNVAITHGLKKFFSCRGIAIAVEYFWKLGNRNITVFVPQWRTRRDPNVTEQHFLTQLQELGILSLTPARMVFGERIASHDDRFLLHLADKTGGIIVTNDNFREFVNESVSWREIITKRLLQYTFVGDIFMVPDDPLGRSGPRLEEFLQKEVCLRDMQPLLSALPNVGMFDPSFRVPGTQAASTSHQPPTRIQGAPSSHWLPQQPHFPLLPALPSLQQNLPMPAQRSSAETNELREALLKIFPDSEQRLKIDQILVAHPYMKDLNALSAMVLD
Question: Does B1 bind (linear hepta-ubiquitin)?
Answer: Result: binds

Question: Does B1 bind (linear tetra-ubiquitin)?
Answer: Result: binds
